Laboratory results as given in PMC4639866.

Biological target: GST::BubR1 [1–337] (Drosophila)
Experiment: pull-down

decrease of in vitro binding efficiency against wild-type Fzy: 50%
B1: GFP::Fzy-DYY* (natural protein)
chain: MSQFNFVSDLQNALIMDGETRGPAPRWKKKLEASLNGSVNTTRSVLSVSYNTSFSGVQAPTKTPGKSSEGKTKKSNTTPSKTPGGGDRFIPNRAATNFELAHFLVNKDSGDKSDEENDKATSSNSNESNVQASAHKGDRQKLISEVAQVGDSKGGRILCYQNKAPAAPETHNNPLKVVYSIKTPISTKSGSRYIPTTSERILDAPDFINAAALNLMDWSADNIVAVALGSCVYLWNAQTGNIEQLTEFEEGDYAGSLSWIQEGQILAIGNSTGAVELWDCSKVKRLRVMDGHSARVGSLAWNSFLVSSGSRDGTIVHHDVRAREHKLSTLSGHTQEVCGLKWSTDFKYLASGGNDNLVNVWSAASGGVGTATDPLHKFNDHQAAVRALAWCPWQPSTLASGGGTADRCIKFWNVNNGTLMKSVDSKSQVCSLLFSRHYKELISAHGFANNQLTIWKYPTMVKQADLTGHTSRVLQMAMSPDGSTVISAGADETLRLWNCFAPDPLASKKAVSTSKGKQSVFRQSIR
